Measurements taken from the supplement of paper PMC9112550, “Optimization of the antimicrobial peptide Bac7 by deep mutational scanning” (BMC Biology, 2022).

Tested on: Escherichia coli TOP10
Assay: shrunken log2 fold change of peptide-encoding DNA abundance (4.5 h post-induction vs induction); higher = less antimicrobial activity (less host growth inhibition)
Conditions: time post-induction: 4.5 h; library: site-saturation at positions 5, 18, 19, 20
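Further: peptides expressed intracellularly from a pBAD plasmid library in pooled LB shake-flask culture, induced with 0.3% L-arabinose, DNA abundance read by NGS, three biological replicates, DESeq2 with apeglm shrinkage.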

Sequence	shrunken log2 fold change
RRIRDRPPRLPRPRPRPEWRPRP	1.08
RRIRSRPPRLPRPRPRPTHYPRP	-0.125
RRIRSRPPRLPRPRPRPREMPRP	0.159
RRIRSRPPRLPRPRPRPRNEPRP	0.00717
RRIRCRPPRLPRPRPRPSEAPRP	0.125
RRIRARPPRLPRPRPRPTKLPRP	-0.00644
RRIRVRPPRLPRPRPRPIRDPRP	0.0875
RRIRIRPPRLPRPRPRPNQWPRP	-0.422
RRIRDRPPRLPRPRPRPARIPRP	0.136
RRIRLRPPRLPRPRPRPLCEPRP	0.0911
RRIRIRPPRLPRPRPRPWLYPRP	-0.0424
RRIRQRPPRLPRPRPRPMYRPRP	0.0341
RRIRRRPPRLPRPRPRPKYTPRP	-0.000338
RRIRMRPPRLPRPRPRPTGWPRP	0.687
RRIRPRPPRLPRPRPRPPKDPRP	0.225
RRIRQRPPRLPRPRPRPWDSPRP	-0.198
RRIRRRPPRLPRPRPRPEIIPRP	0.0119
RRIRKRPPRLPRPRPRPQAPPRP	0.537
RRIRTRPPRLPRPRPRPGGIPRP	0.0232
RRIRPRPPRLPRPRPRPAANPRP	0.17
RRIRKRPPRLPRPRPRPFQPPRP	0.0366
RRIRFRPPRLPRPRPRPIWRPRP	0.248
RRIRKRPPRLPRPRPRPPIPPRP	0.987
RRIRFRPPRLPRPRPRPTNAPRP	-0.143
RRIRHRPPRLPRPRPRPFVYPRP	-0.186

Sequence	shrunken log2 fold change
RRIRTRPPRLPRPRPRPGNIPRP	-0.0496
RRIRDRPPRLPRPRPRPLKPPRP	-0.00274
RRIRLRPPRLPRPRPRPPRAPRP	0.875
RRIRHRPPRLPRPRPRPLGHPRP	-0.499
RRIRCRPPRLPRPRPRPQMVPRP	0.151
RRIRCRPPRLPRPRPRPLYVPRP	-0.833
RRIRMRPPRLPRPRPRPHQNPRP	0.114
RRIRSRPPRLPRPRPRPEFKPRP	0.00218
RRIRMRPPRLPRPRPRPGDPPRP	1.09
RRIRKRPPRLPRPRPRPKGFPRP	0.0233
RRIRPRPPRLPRPRPRPNDKPRP	-0.52
RRIRERPPRLPRPRPRPMLLPRP	-0.166
RRIRFRPPRLPRPRPRPLLAPRP	0.176
RRIRFRPPRLPRPRPRPKYLPRP	-0.451
RRIRLRPPRLPRPRPRPQHTPRP	-0.418
RRIRMRPPRLPRPRPRPIAGPRP	-0.0293
RRIRHRPPRLPRPRPRPDKPPRP	-0.0375
RRIRDRPPRLPRPRPRPKDRPRP	0.0874
RRIRIRPPRLPRPRPRPVTHPRP	-0.256
RRIRMRPPRLPRPRPRPGDTPRP	0.064
RRIRRRPPRLPRPRPRPNTIPRP	-0.372
RRIRARPPRLPRPRPRPITYPRP	-0.0353
RRIRRRPPRLPRPRPRPCWSPRP	-0.0452
RRIRCRPPRLPRPRPRPIWEPRP	0.0488
RRIRCRPPRLPRPRPRPDETPRP	-0.0127

Sequence	shrunken log2 fold change
RRIRFRPPRLPRPRPRPPSNPRP	0.324
RRIRERPPRLPRPRPRPDKPPRP	-0.051
RRIRQRPPRLPRPRPRPDTHPRP	-0.347
RRIRIRPPRLPRPRPRPDLKPRP	-0.194
RRIRDRPPRLPRPRPRPWDWPRP	1.03
RRIRFRPPRLPRPRPRPWIPPRP	-0.432
RRIRGRPPRLPRPRPRPMIAPRP	0.915
RRIRVRPPRLPRPRPRPMSAPRP	0.262
RRIRMRPPRLPRPRPRPMEAPRP	0.0555
RRIRWRPPRLPRPRPRPARWPRP	1.07
RRIRERPPRLPRPRPRPALFPRP	0.0738
RRIRWRPPRLPRPRPRPKCTPRP	1.21
RRIRMRPPRLPRPRPRPRFMPRP	0.385
RRIRRRPPRLPRPRPRPDQLPRP	-0.0202
RRIRLRPPRLPRPRPRPEGHPRP	-0.107
RRIRIRPPRLPRPRPRPYMGPRP	-0.579
RRIRRRPPRLPRPRPRPYMFPRP	-0.448
RRIRTRPPRLPRPRPRPTMWPRP	-0.0407
RRIRDRPPRLPRPRPRPPEKPRP	0.106
RRIRRRPPRLPRPRPRPPYSPRP	0.122
RRIRWRPPRLPRPRPRPTRGPRP	0.329
RRIRRRPPRLPRPRPRPKVWPRP	0.382
RRIRTRPPRLPRPRPRPVPSPRP	0.0454
RRIRFRPPRLPRPRPRPCQLPRP	-0.938
RRIRWRPPRLPRPRPRPDSRPRP	-0.251

Sequence	shrunken log2 fold change
RRIRSRPPRLPRPRPRPAADPRP	0.252
RRIRGRPPRLPRPRPRPYHIPRP	0.158
RRIRIRPPRLPRPRPRPFSEPRP	-0.315
RRIRKRPPRLPRPRPRPNPIPRP	0.0804
RRIRCRPPRLPRPRPRPKKNPRP	0.24
RRIRYRPPRLPRPRPRPECNPRP	-0.0877
RRIRNRPPRLPRPRPRPKTYPRP	-1.23
RRIRPRPPRLPRPRPRPYPRPRP	0.0824
RRIRTRPPRLPRPRPRPTEYPRP	-0.245
RRIRWRPPRLPRPRPRPGWKPRP	0.0668
RRIRTRPPRLPRPRPRPPYPPRP	0.0259
RRIRVRPPRLPRPRPRPRRLPRP	0.135
RRIRPRPPRLPRPRPRPMSIPRP	-0.211
RRIRFRPPRLPRPRPRPIFMPRP	-0.314
RRIRTRPPRLPRPRPRPMKCPRP	-0.0722
RRIRARPPRLPRPRPRPNWIPRP	0.00102
RRIRMRPPRLPRPRPRPKAVPRP	0.0216
RRIRVRPPRLPRPRPRPHKGPRP	-0.0569
RRIRCRPPRLPRPRPRPPGNPRP	0.0392
RRIRLRPPRLPRPRPRPNDMPRP	-0.258
RRIRFRPPRLPRPRPRPELWPRP	0.677
RRIRVRPPRLPRPRPRPPSNPRP	-0.034
RRIRCRPPRLPRPRPRPKSWPRP	0.323
RRIRWRPPRLPRPRPRPLKWPRP	0.488
RRIRPRPPRLPRPRPRPDAAPRP	0.721

Sequence	shrunken log2 fold change
RRIRFRPPRLPRPRPRPYFAPRP	-0.572
RRIRHRPPRLPRPRPRPSRVPRP	-0.0634
RRIRRRPPRLPRPRPRPTYGPRP	0.0875
RRIRHRPPRLPRPRPRPQGCPRP	-0.0592
RRIRLRPPRLPRPRPRPHTQPRP	-0.31
RRIRKRPPRLPRPRPRPMPTPRP	0.0822
RRIRYRPPRLPRPRPRPACVPRP	-0.351
RRIRPRPPRLPRPRPRPGHPPRP	-0.12
RRIRSRPPRLPRPRPRPLRYPRP	0.166
RRIRYRPPRLPRPRPRPLSCPRP	-0.0548
RRIRSRPPRLPRPRPRPQVVPRP	-0.144
RRIRIRPPRLPRPRPRPKHAPRP	-0.126
RRIRFRPPRLPRPRPRPFLYPRP	-1.04
RRIRERPPRLPRPRPRPKNPPRP	-0.503
RRIRKRPPRLPRPRPRPQAKPRP	-0.00692
RRIRCRPPRLPRPRPRPMEHPRP	-0.0605
RRIRFRPPRLPRPRPRPCNCPRP	-0.166
RRIRCRPPRLPRPRPRPRHEPRP	-0.117
RRIRNRPPRLPRPRPRPWRHPRP	-0.109
RRIRERPPRLPRPRPRPMSPPRP	-0.0381
RRIRERPPRLPRPRPRPIRTPRP	-0.577
RRIRWRPPRLPRPRPRPRRFPRP	0.269
RRIRFRPPRLPRPRPRPMMVPRP	-0.112
RRIRLRPPRLPRPRPRPNNHPRP	-0.761
RRIRIRPPRLPRPRPRPYIKPRP	-0.684

Sequence	shrunken log2 fold change
RRIRSRPPRLPRPRPRPNTLPRP	-0.373
RRIRARPPRLPRPRPRPHFSPRP	0.0805
RRIRTRPPRLPRPRPRPHVFPRP	-0.119
RRIRCRPPRLPRPRPRPFPQPRP	-0.265
RRIRVRPPRLPRPRPRPMVQPRP	0.159
RRIRARPPRLPRPRPRPANQPRP	0.0465
RRIRVRPPRLPRPRPRPELHPRP	0.133
RRIRMRPPRLPRPRPRPTWDPRP	0.762
RRIRYRPPRLPRPRPRPGHVPRP	-0.59
RRIRNRPPRLPRPRPRPASNPRP	-0.065
RRIRARPPRLPRPRPRPYLRPRP	-0.228
RRIRMRPPRLPRPRPRPDAGPRP	1.12
RRIRHRPPRLPRPRPRPYRFPRP	-0.269
RRIRRRPPRLPRPRPRPGVRPRP	0.318
RRIRARPPRLPRPRPRPVPCPRP	0.341
RRIRNRPPRLPRPRPRPTRAPRP	0.683
RRIRHRPPRLPRPRPRPHSQPRP	-0.224
RRIRQRPPRLPRPRPRPHEYPRP	0.0128
RRIRDRPPRLPRPRPRPHQTPRP	0.0267
RRIRYRPPRLPRPRPRPQGLPRP	0.0179
RRIRIRPPRLPRPRPRPFDMPRP	-0.142
RRIRHRPPRLPRPRPRPDTQPRP	0.047
RRIRTRPPRLPRPRPRPVATPRP	0.299
RRIRWRPPRLPRPRPRPIKRPRP	0.21
RRIRRRPPRLPRPRPRPSLPPRP	0.44
